Test results: the supplement of paper PMC9732359
± gives the uncertainty stated by the source.

Experiment: protein stability index of a GFP-peptide fusion (yeast GPS) (PSI 1-4); higher = more stable; sorted into four equal gates, so the index is relative within each strain
In short: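 Each library plasmid carries Cherry plus GFP with a tiled 17-residue yeast protein peptide fused downstream, and the pooled library was carried in yeast. Mid-log cultures in leucine-free medium were sorted into four equal gates by GFP/Cherry ratio. Reads from Illumina sequencing of PCR-amplified plasmids from each gate were assigned to strains by barcodes. Per peptide, the protein stability index was computed as the summed products of gate read frequency and gate number.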

YTQYTNDYLEKHSVTEY [CDC53]
protein stability index (doa10∆): 2.55 ± 0.1 | protein stability index (pdr5∆): 2.45 ± 0.075 | protein stability index (san1∆): 2.81 ± 0.071 | protein stability index (ubr1∆): 3.13 ± 0.092

DIKANGSIQKGMPHKFY [RPL21A]
protein stability index (doa10∆): 3.01 ± 0.21 | protein stability index (pdr5∆): 3.07 ± 0.15 | protein stability index (san1∆): 3.07 ± 0.28 | protein stability index (ubr1∆): 3.64 ± 0.14

GSSDEDLKSLNVRDDMK [SSN2]
protein stability index (doa10∆): 3.29 ± 0.13 | protein stability index (pdr5∆): 3.58 ± 0.11 | protein stability index (san1∆): 3.38 ± 0.078 | protein stability index (ubr1∆): 3.2 ± 0.11

NNSKSRYPMNLLEFIID [ECM29]
protein stability index (doa10∆): 2.5 ± 0.086 | protein stability index (pdr5∆): 2.69 ± 0.052 | protein stability index (san1∆): 2.64 ± 0.075 | protein stability index (ubr1∆): 2.92 ± 0.097

PSSSDSNGPRAAKKRRP [RRP6]
protein stability index (doa10∆): 3.08 ± 0.11 | protein stability index (pdr5∆): 3.29 ± 0.085 | protein stability index (san1∆): 3.28 ± 0.063 | protein stability index (ubr1∆): 3.3 ± 0.062

WQVIITDDQGRVIDDNN [SIR3]
protein stability index (doa10∆): 3.49 ± 0.11 | protein stability index (pdr5∆): 3.43 ± 0.1 | protein stability index (san1∆): 3.31 ± 0.08 | protein stability index (ubr1∆): 3.52 ± 0.073

LLAEEEELILPNTKDAM [PRP8]
protein stability index (doa10∆): 3.16 ± 0.089 | protein stability index (pdr5∆): 3.44 ± 0.072 | protein stability index (san1∆): 3.36 ± 0.063 | protein stability index (ubr1∆): 3.04 ± 0.079

GLIPADATFAGHSLGEY [FAS1]
protein stability index (doa10∆): 3.01 ± 0.087 | protein stability index (pdr5∆): 3.21 ± 0.06 | protein stability index (san1∆): 3.08 ± 0.11 | protein stability index (ubr1∆): 3.03 ± 0.059

IGIMASDGIVLAAERKV [PRE9]
protein stability index (doa10∆): 2.79 ± 0.29 | protein stability index (san1∆): 3.37 ± 0.15

VLQDLRLGSKKLVEIIW [YJL039C/NUP192]
protein stability index (doa10∆): 3.25 ± 0.1 | protein stability index (pdr5∆): 3.09 ± 0.16 | protein stability index (san1∆): 3.15 ± 0.068 | protein stability index (ubr1∆): 3.39 ± 0.14

YNYCVNKSRSSGHFSTD [CDC53]
protein stability index (doa10∆): 2.8 ± 0.056 | protein stability index (pdr5∆): 2.54 ± 0.046 | protein stability index (san1∆): 2.23 ± 0.049 | protein stability index (ubr1∆): 2.54 ± 0.036

NKNNNNRHNLLNDVVSF [SWI1]
protein stability index (doa10∆): 2.99 ± 0.061 | protein stability index (pdr5∆): 1.98 ± 0.036 | protein stability index (san1∆): 1.99 ± 0.037 | protein stability index (ubr1∆): 1.9 ± 0.034

SLDSCTAAFTAMICEAK [YJR042W/NUP85]
protein stability index (doa10∆): 2.79 ± 0.13 | protein stability index (pdr5∆): 2.51 ± 0.11 | protein stability index (san1∆): 2.99 ± 0.081 | protein stability index (ubr1∆): 2.81 ± 0.096

PIVEDRRVKQLDDITDS [SIR4]
protein stability index (pdr5∆): 1.49 ± 0.19 | protein stability index (san1∆): 1.31 ± 0.21 | protein stability index (ubr1∆): 1.64 ± 0.12

TGDVLLIQDLLHRLTPK [RPN1]
protein stability index (doa10∆): 3.12 ± 0.07 | protein stability index (pdr5∆): 3.03 ± 0.061 | protein stability index (san1∆): 3.01 ± 0.062 | protein stability index (ubr1∆): 2.8 ± 0.059

NSKVDMKYDIFAKFIHH [IRR1]
protein stability index (doa10∆): 2.39 ± 0.083 | protein stability index (pdr5∆): 2.15 ± 0.077 | protein stability index (san1∆): 2.31 ± 0.071 | protein stability index (ubr1∆): 2.47 ± 0.054

WVIRKQRRTNNSGVGSA [MED6]
protein stability index (doa10∆): 2.48 ± 0.27 | protein stability index (pdr5∆): 2.36 ± 0.14 | protein stability index (san1∆): 2.58 ± 0.11 | protein stability index (ubr1∆): 2.8 ± 0.14

IRLAKTLKKNNVAVDII [RPN10]
protein stability index (doa10∆): 2.73 ± 0.085 | protein stability index (pdr5∆): 2.85 ± 0.095 | protein stability index (san1∆): 2.92 ± 0.12 | protein stability index (ubr1∆): 2.56 ± 0.075

SPHGLINLNVDDDILII [SRB4]
protein stability index (doa10∆): 3.1 ± 0.074 | protein stability index (pdr5∆): 3.2 ± 0.075 | protein stability index (san1∆): 3.11 ± 0.054 | protein stability index (ubr1∆): 3.05 ± 0.045

LERVKRIMEKSVILSVI [YML031W/NDC1]
protein stability index (doa10∆): 2.71 ± 0.086 | protein stability index (pdr5∆): 2.17 ± 0.094 | protein stability index (san1∆): 1.98 ± 0.096 | protein stability index (ubr1∆): 1.61 ± 0.049

EGDQAEVIFSFEGTPPF [YMR129W/POM152]
protein stability index (doa10∆): 3.29 ± 0.17 | protein stability index (pdr5∆): 3.39 ± 0.17 | protein stability index (san1∆): 2.52 ± 0.21 | protein stability index (ubr1∆): 3.36 ± 0.1

RSLGLQQVVCIFSYGPH [POP6]
protein stability index (doa10∆): 1.51 ± 0.028 | protein stability index (pdr5∆): 1.7 ± 0.037 | protein stability index (san1∆): 1.57 ± 0.049 | protein stability index (ubr1∆): 1.64 ± 0.026

QSDFCLSWCPSRFSPEK [YGL100W/SEH1]
protein stability index (doa10∆): 3.09 ± 0.11 | protein stability index (pdr5∆): 3.02 ± 0.19

RYDYSDEVGRRSMLTVV [YCG1]
protein stability index (doa10∆): 2.02 ± 0.067 | protein stability index (pdr5∆): 1.73 ± 0.062 | protein stability index (san1∆): 2.91 ± 0.094 | protein stability index (ubr1∆): 1.97 ± 0.05

PQQSRYISFIKDDRFVP [RPN2]
protein stability index (doa10∆): 2.67 ± 0.055 | protein stability index (pdr5∆): 2.87 ± 0.036 | protein stability index (san1∆): 2.98 ± 0.044 | protein stability index (ubr1∆): 3.11 ± 0.035

IIKERALLSKVKWVHMI [SNF2]
protein stability index (doa10∆): 1.37 ± 0.059 | protein stability index (pdr5∆): 1.23 ± 0.061 | protein stability index (san1∆): 1.34 ± 0.088 | protein stability index (ubr1∆): 1.18 ± 0.042

MVNVPKTRKTYCKGKTC [RPL42A]
protein stability index (doa10∆): 1.42 ± 0.15 | protein stability index (pdr5∆): 1.41 ± 0.1 | protein stability index (san1∆): 1.99 ± 0.25 | protein stability index (ubr1∆): 1.35 ± 0.075

QKSGRPVKSIRARLKGK [RPO21]
protein stability index (doa10∆): 2.17 ± 0.12 | protein stability index (pdr5∆): 2.23 ± 0.12 | protein stability index (san1∆): 2.34 ± 0.2 | protein stability index (ubr1∆): 1.77 ± 0.24

VAQQQVQRQIEQQKGQQ [SNF5]
protein stability index (doa10∆): 3.42 ± 0.079 | protein stability index (pdr5∆): 3.14 ± 0.1 | protein stability index (san1∆): 3.46 ± 0.075 | protein stability index (ubr1∆): 3.19 ± 0.089

ESCEDILDLKEFDRRIL [RTT102]
protein stability index (doa10∆): 2.78 ± 0.16 | protein stability index (pdr5∆): 3.37 ± 0.16 | protein stability index (san1∆): 3.23 ± 0.072 | protein stability index (ubr1∆): 3.07 ± 0.092

ALIENKKAKLVLIANDV [RPL8A]
protein stability index (doa10∆): 2.76 ± 0.1 | protein stability index (pdr5∆): 2.51 ± 0.093 | protein stability index (san1∆): 2.56 ± 0.12 | protein stability index (ubr1∆): 2.46 ± 0.12

QEITTNLENHFKKSKID [SCL1]
protein stability index (doa10∆): 3.12 ± 0.089 | protein stability index (pdr5∆): 3.15 ± 0.08 | protein stability index (san1∆): 3.1 ± 0.06 | protein stability index (ubr1∆): 3.22 ± 0.063

DKLDDDGLIAPGVRVSG [RPB2]
protein stability index (doa10∆): 1.65 ± 0.19 | protein stability index (pdr5∆): 2.23 ± 0.1 | protein stability index (san1∆): 2.48 ± 0.27 | protein stability index (ubr1∆): 1.71 ± 0.11

ILRKPGKDCKLQNLQRI [RRI2]
protein stability index (doa10∆): 3.12 ± 0.094 | protein stability index (pdr5∆): 3.47 ± 0.14 | protein stability index (san1∆): 3.14 ± 0.096 | protein stability index (ubr1∆): 3.07 ± 0.13

NSDDCMMEEIINVVIKA [ECM29]
protein stability index (doa10∆): 3.31 ± 0.14 | protein stability index (pdr5∆): 3.67 ± 0.18 | protein stability index (san1∆): 3.14 ± 0.11 | protein stability index (ubr1∆): 2.97 ± 0.11

ARFRSIHILKVAEIEKT [RPL20A]
protein stability index (doa10∆): 1.2 ± 0.067 | protein stability index (pdr5∆): 1.16 ± 0.051 | protein stability index (san1∆): 1.14 ± 0.088 | protein stability index (ubr1∆): 1.08 ± 0.048

SLNPALQEKISTELNNK [SWI1]
protein stability index (doa10∆): 2.8 ± 0.11 | protein stability index (pdr5∆): 3.05 ± 0.097 | protein stability index (san1∆): 3.29 ± 0.069 | protein stability index (ubr1∆): 3.27 ± 0.083

HVLRGVESPDKNVRFRV [YCG1]
protein stability index (pdr5∆): 3.68 ± 0.2 | protein stability index (san1∆): 3.16 ± 0.15

WLNGKMDSKGKITIGIQ [RGR1]
protein stability index (doa10∆): 3.69 ± 0.12 | protein stability index (pdr5∆): 3.47 ± 0.21

TPMGGFVHYGEIKNDFI [RPL3]
protein stability index (doa10∆): 3.32 ± 0.093 | protein stability index (pdr5∆): 3.19 ± 0.092 | protein stability index (san1∆): 3.27 ± 0.12 | protein stability index (ubr1∆): 3.28 ± 0.078

LLFPKSTIVNLAREVPQ [DPB4]
protein stability index (doa10∆): 1.77 ± 0.14 | protein stability index (pdr5∆): 2.24 ± 0.25 | protein stability index (san1∆): 1.72 ± 0.18 | protein stability index (ubr1∆): 1.94 ± 0.14

DVKCWSKFIEKFQDIVS [MED1]
protein stability index (doa10∆): 1.83 ± 0.12 | protein stability index (pdr5∆): 2.62 ± 0.12 | protein stability index (san1∆): 2.09 ± 0.14 | protein stability index (ubr1∆): 1.89 ± 0.1

SSRFKHRQEIFKDSPMD [GAL11]
protein stability index (doa10∆): 2.71 ± 0.078 | protein stability index (pdr5∆): 3.11 ± 0.066 | protein stability index (san1∆): 3.03 ± 0.059 | protein stability index (ubr1∆): 3.01 ± 0.076

FDSLIKVQISKIPILAQ [RPN9]
protein stability index (doa10∆): 2.69 ± 0.081 | protein stability index (pdr5∆): 1.8 ± 0.056 | protein stability index (san1∆): 2.59 ± 0.094 | protein stability index (ubr1∆): 1.96 ± 0.081

HAADSQNNKPSFVFGQA [YLR335W/NUP2]
protein stability index (doa10∆): 2.91 ± 0.11 | protein stability index (pdr5∆): 2.95 ± 0.092 | protein stability index (san1∆): 2.58 ± 0.057 | protein stability index (ubr1∆): 3.15 ± 0.093

SLFGSIGDDGYDLLIST [SRB5]
protein stability index (doa10∆): 2.17 ± 0.087 | protein stability index (pdr5∆): 2.07 ± 0.14 | protein stability index (san1∆): 3.05 ± 0.071 | protein stability index (ubr1∆): 3.5 ± 0.11

RREVQIQLQEFLLSAMT [NSL1]
protein stability index (doa10∆): 1.42 ± 0.052 | protein stability index (pdr5∆): 1.68 ± 0.11 | protein stability index (san1∆): 1.47 ± 0.12 | protein stability index (ubr1∆): 1.68 ± 0.063

SSAADITMESVHEWEVS [PRP8]
protein stability index (doa10∆): 3.28 ± 0.062 | protein stability index (pdr5∆): 3.32 ± 0.055 | protein stability index (san1∆): 3.31 ± 0.048 | protein stability index (ubr1∆): 3.29 ± 0.046

LAKLVSTIDANFADKYD [RPL8A]
protein stability index (doa10∆): 2.41 ± 0.14 | protein stability index (pdr5∆): 2.8 ± 0.14 | protein stability index (san1∆): 2.8 ± 0.12 | protein stability index (ubr1∆): 1.89 ± 0.069

LALAETLKLRARQRGKL [SRP68]
protein stability index (pdr5∆): 2.64 ± 0.21 | protein stability index (san1∆): 2.25 ± 0.26 | protein stability index (ubr1∆): 2.97 ± 0.098
